# From paper doi:10.1101/2021.08.20.457142
# B1: MKK6 D-site peptide / p38-alpha (MAPK14) L195A, full length (parent complex)
# chain 1: SQSKGKKRNPGLKIPKEAFEQP
# chain 2: MSQERPTFYRQELNKTVWEVPERYQNLSPVGSGAYGSVCAAFDTKTGHRVAVKKLSRPFQSIIHAKRTYRELRLLKHMKHENVIGLLDVFTPARSLEEFNDVYLVTHLMGADLNNIVKCQKLTDDHVQFLIYQILRGLKYIHSADIIHRDLKPSNLAVNEDCELKILDFGLARHTDDEMTGYVATRWYRAPEIMANWMHYNQTVDIWSVGCIMAELLTGRTLFPGTDHIDQLKLILRLVGTPGAELLKKISSESARNYIQSLAQMPKMNFANVFIGANPLAVDLLEKMLVLDSDKRITAAQALAHAYFAQYHDPDDEPVAEPYDQSFESRDFLIDEWKSLTYDEVISFVPPPLDQEEMES
# Variants of: B1
row,Variant,screen value
1,chain 1 P15C,4.38 Z-score of the enrichment rate within one screen of 711 sequences
2,chain 1 P15R,1.68 Z-score of the enrichment rate within one screen of 711 sequences
3,chain 1 G5K,2.33 Z-score of the enrichment rate within one screen of 711 sequences
4,chain 1 G5W,4.45 Z-score of the enrichment rate within one screen of 711 sequences
5,chain 1 G5F,3.61 Z-score of the enrichment rate within one screen of 711 sequences
6,chain 1 G5N,1.64 Z-score of the enrichment rate within one screen of 711 sequences
7,chain 1 G5S,1.65 Z-score of the enrichment rate within one screen of 711 sequences
8,chain 1 G5M,2.63 Z-score of the enrichment rate within one screen of 711 sequences
9,chain 1 G5T,1.67 Z-score of the enrichment rate within one screen of 711 sequences
10,chain 1 G5H,1.94 Z-score of the enrichment rate within one screen of 711 sequences
11,"chain 1 K6A, chain 1 L12A",-0.715 Z-score of the enrichment rate within one screen of 711 sequences
12,"chain 1 K7A, chain 1 L12A",-1.2 Z-score of the enrichment rate within one screen of 711 sequences
13,chain 1 K6D,0.0134 Z-score of the enrichment rate within one screen of 711 sequences
14,chain 1 K6V,0.748 Z-score of the enrichment rate within one screen of 711 sequences
15,chain 1 K6N,0.746 Z-score of the enrichment rate within one screen of 711 sequences
16,chain 1 K6P,0.527 Z-score of the enrichment rate within one screen of 711 sequences
17,chain 1 K6E,-0.606 Z-score of the enrichment rate within one screen of 711 sequences
18,chain 1 K6A,0.653 Z-score of the enrichment rate within one screen of 711 sequences
19,"chain 1 K13A, chain 1 P15A",-0.309 Z-score of the enrichment rate within one screen of 711 sequences
20,chain 1 K7G,1.17 Z-score of the enrichment rate within one screen of 711 sequences
21,chain 1 K7S,0.9 Z-score of the enrichment rate within one screen of 711 sequences
22,chain 1 K7E,-0.535 Z-score of the enrichment rate within one screen of 711 sequences
23,chain 1 K7D,-0.807 Z-score of the enrichment rate within one screen of 711 sequences
24,chain 1 K7L,1.83 Z-score of the enrichment rate within one screen of 711 sequences
25,"chain 1 K13A, chain 1 I14A",-0.745 Z-score of the enrichment rate within one screen of 711 sequences

row,Variant,screen value
1,"chain 1 R8A, chain 1 L12A",-0.76 Z-score of the enrichment rate within one screen of 711 sequences
2,"chain 1 S3A, chain 1 G11A",0.988 Z-score of the enrichment rate within one screen of 711 sequences
3,chain 1 K16A,0.957 Z-score of the enrichment rate within one screen of 711 sequences
4,chain 1 K16T,0.151 Z-score of the enrichment rate within one screen of 711 sequences
5,chain 1 K16G,-0.443 Z-score of the enrichment rate within one screen of 711 sequences
6,chain 1 K16Q,0.247 Z-score of the enrichment rate within one screen of 711 sequences
7,chain 1 K16L,1.28 Z-score of the enrichment rate within one screen of 711 sequences
8,chain 1 K16P,0.798 Z-score of the enrichment rate within one screen of 711 sequences
9,"chain 1 K4A, chain 1 I14A",-1.18 Z-score of the enrichment rate within one screen of 711 sequences
10,"chain 1 S3A, chain 1 N9A",1.3 Z-score of the enrichment rate within one screen of 711 sequences
11,chain 1 I14D,-0.97 Z-score of the enrichment rate within one screen of 711 sequences
12,chain 1 I14N,-0.906 Z-score of the enrichment rate within one screen of 711 sequences
13,chain 1 I14K,-0.966 Z-score of the enrichment rate within one screen of 711 sequences
14,chain 1 I14P,-0.823 Z-score of the enrichment rate within one screen of 711 sequences
15,chain 1 I14L,3.12 Z-score of the enrichment rate within one screen of 711 sequences
16,chain 1 I14W,-0.82 Z-score of the enrichment rate within one screen of 711 sequences
17,chain 1 I14T,-1.3 Z-score of the enrichment rate within one screen of 711 sequences
18,chain 1 I14H,-0.748 Z-score of the enrichment rate within one screen of 711 sequences
19,"chain 1 G5A, chain 1 I14A",-1.03 Z-score of the enrichment rate within one screen of 711 sequences
20,"chain 1 K4A, chain 1 R8A",-0.792 Z-score of the enrichment rate within one screen of 711 sequences
21,"chain 1 K6A, chain 1 P10A",-0.354 Z-score of the enrichment rate within one screen of 711 sequences
22,"chain 1 K6A, chain 1 I14A",-1.08 Z-score of the enrichment rate within one screen of 711 sequences
23,"chain 1 P10A, chain 1 P15A",0.87 Z-score of the enrichment rate within one screen of 711 sequences
24,"chain 1 K6A, chain 1 G11A",0.561 Z-score of the enrichment rate within one screen of 711 sequences
25,"chain 1 K4A, chain 1 K7A",-0.395 Z-score of the enrichment rate within one screen of 711 sequences

row,Variant,screen value
1,"chain 1 G5A, chain 1 N9A",1.1 Z-score of the enrichment rate within one screen of 711 sequences
2,"chain 1 L12A, chain 1 K16A",-0.931 Z-score of the enrichment rate within one screen of 711 sequences
3,"chain 1 G11A, chain 1 P15A",1.79 Z-score of the enrichment rate within one screen of 711 sequences
4,chain 1 S3L,1.66 Z-score of the enrichment rate within one screen of 711 sequences
5,chain 1 S3I,2 Z-score of the enrichment rate within one screen of 711 sequences
6,chain 1 S3W,2.4 Z-score of the enrichment rate within one screen of 711 sequences
7,chain 1 S3K,2.42 Z-score of the enrichment rate within one screen of 711 sequences
8,chain 1 S3F,1.62 Z-score of the enrichment rate within one screen of 711 sequences
9,chain 1 S3D,0.932 Z-score of the enrichment rate within one screen of 711 sequences
10,chain 1 S3P,1.6 Z-score of the enrichment rate within one screen of 711 sequences
11,chain 1 S3E,0.822 Z-score of the enrichment rate within one screen of 711 sequences
12,chain 1 S3C,1.84 Z-score of the enrichment rate within one screen of 711 sequences
13,chain 1 L12N,-1.37 Z-score of the enrichment rate within one screen of 711 sequences
14,chain 1 L12A,-1.31 Z-score of the enrichment rate within one screen of 711 sequences
15,chain 1 L12V,-0.424 Z-score of the enrichment rate within one screen of 711 sequences
16,chain 1 L12E,-1.29 Z-score of the enrichment rate within one screen of 711 sequences
17,chain 1 L12G,-0.861 Z-score of the enrichment rate within one screen of 711 sequences
18,chain 1 L12H,-1 Z-score of the enrichment rate within one screen of 711 sequences
19,chain 1 L12T,-1.06 Z-score of the enrichment rate within one screen of 711 sequences
20,chain 1 L12R,-1.21 Z-score of the enrichment rate within one screen of 711 sequences
21,"chain 1 S3A, chain 1 K16A",0.893 Z-score of the enrichment rate within one screen of 711 sequences
22,"chain 1 S3A, chain 1 P15A",2.7 Z-score of the enrichment rate within one screen of 711 sequences
23,"chain 1 K13A, chain 1 K16A",-0.809 Z-score of the enrichment rate within one screen of 711 sequences
24,"chain 1 N9A, chain 1 K13A",-0.689 Z-score of the enrichment rate within one screen of 711 sequences
25,"chain 1 R8A, chain 1 I14A",-0.878 Z-score of the enrichment rate within one screen of 711 sequences
